Test results: patent US8987192B2, “Potent and selective mediators of cholesterol efflux” (The Regents of the University of California, priority 2006, dated 2015)
“Also recorded” adds a separate entry of the source. Where no end group is shown, it is not given here. [ ]: non-standard residue; d: D form.

Target: ABCA1 (Mus musculus, UniProt P41233)
Test: Cholesterol efflux from [3H]cholesterol-labeled ABCA1-expressing J774 mouse macrophages
Assay type: cell-based
Design: to upregulate cellular ABCA1 protein; endogenous in cells; host or cells: J774 mouse macrophages
Conditions: for ABCA1-dependent cholesterol efflux: macrophages with vs without cAMP; for cholesterol efflux from macrophages not induced for ABCA1 (non-specific): no cAMP; for capacity to stimulate cholesterol efflux at 3 μg/ml: 3 μg/ml lipid-free peptide, ABCA1-expressing macrophages; for efficiency of ABCA1 cholesterol efflux (concentration dependence): concentration dependence curves; for ABCA1-dependent cholesterol efflux at 30 μg/ml: 30 μg/ml peptide
Procedure: In some embodiments, a polypeptide known to mediate cholesterol efflux (e.g., helix 9/10 of Apo A-I) is used to screen for additional mediators of cholesterol efflux in a cell based assay. For example, cell lines in which cholesterol efflux can be enhanced using a cAMP analog that up-regulates ABCA1 protein expression (e.g., J774 macrophages) can conveniently be used to assess the ability of a polypeptide of the present invention to mediate cholesterol efflux. The cells are incubated with labeled cholesterol (e.g., [^3H]cholesterol) under conditions appropriate for cholesterol uptake by the cells. Thus, cAMP or cAMP analogs (e.g., CPT-cAMP) are incubated with the cells for a suitable time before the initiation of cellular cholesterol efflux, i.e., prior to contacting the cells with a test polypeptide. Measurement of labeled cholesterol appearing in the medium is used to determine the cholesterol efflux mediating activity of the test polypeptide.
J774 mouse macrophages labeled with [^3H]cholesterol were treated (20 h) with 22-hydroxycholesterol (10 μM)/cis-retinoic acid (10 μM) to upregulate cellular ABCA1 protein.
Mouse macrophages were labeled with [^3H]cholesterol and treated with a cAMP analog to induce ABCA1 expression. […] Km values were calculated using the Michaelis-Menton equation and GraphPad Prism4 software.
Inverted sequence peptides synthesized with all L-amino acids and all D-amino acids were tested for cholesterol efflux activity using ABCA1 expressing J774 macrophages.
Two peptide analogs were engineered; the first replacing glutamic acid residues (E) at position 8 and 15 with aspartic acid residues (D), i.e., E8, 15>D polypeptides, and the second, replacing E1, 7, 8, 15, 18, 19 with D, i.e., all D (Asp) polypeptide. Cholesterol efflux activity was determined using J774 macrophages treated with and without a cAMP analog to modulate ABCA1 expression.
The impact of the A12>L substitution was also tested for activity, which also expanded non-polar surface area.
1-palmitoyl-2-oleoyl-phosphatidylcholine (POPC) was used to evaluate the cholesterol efflux properties of a formulated polypeptide of the present invention. […] To test cholesterol efflux activity, J774 mouse macrophages were labeled with [^3H]cholesterol and treated with and without cAMP to modulate ABCA1 expression.

ABCA1, sequence (P41233 whole entry): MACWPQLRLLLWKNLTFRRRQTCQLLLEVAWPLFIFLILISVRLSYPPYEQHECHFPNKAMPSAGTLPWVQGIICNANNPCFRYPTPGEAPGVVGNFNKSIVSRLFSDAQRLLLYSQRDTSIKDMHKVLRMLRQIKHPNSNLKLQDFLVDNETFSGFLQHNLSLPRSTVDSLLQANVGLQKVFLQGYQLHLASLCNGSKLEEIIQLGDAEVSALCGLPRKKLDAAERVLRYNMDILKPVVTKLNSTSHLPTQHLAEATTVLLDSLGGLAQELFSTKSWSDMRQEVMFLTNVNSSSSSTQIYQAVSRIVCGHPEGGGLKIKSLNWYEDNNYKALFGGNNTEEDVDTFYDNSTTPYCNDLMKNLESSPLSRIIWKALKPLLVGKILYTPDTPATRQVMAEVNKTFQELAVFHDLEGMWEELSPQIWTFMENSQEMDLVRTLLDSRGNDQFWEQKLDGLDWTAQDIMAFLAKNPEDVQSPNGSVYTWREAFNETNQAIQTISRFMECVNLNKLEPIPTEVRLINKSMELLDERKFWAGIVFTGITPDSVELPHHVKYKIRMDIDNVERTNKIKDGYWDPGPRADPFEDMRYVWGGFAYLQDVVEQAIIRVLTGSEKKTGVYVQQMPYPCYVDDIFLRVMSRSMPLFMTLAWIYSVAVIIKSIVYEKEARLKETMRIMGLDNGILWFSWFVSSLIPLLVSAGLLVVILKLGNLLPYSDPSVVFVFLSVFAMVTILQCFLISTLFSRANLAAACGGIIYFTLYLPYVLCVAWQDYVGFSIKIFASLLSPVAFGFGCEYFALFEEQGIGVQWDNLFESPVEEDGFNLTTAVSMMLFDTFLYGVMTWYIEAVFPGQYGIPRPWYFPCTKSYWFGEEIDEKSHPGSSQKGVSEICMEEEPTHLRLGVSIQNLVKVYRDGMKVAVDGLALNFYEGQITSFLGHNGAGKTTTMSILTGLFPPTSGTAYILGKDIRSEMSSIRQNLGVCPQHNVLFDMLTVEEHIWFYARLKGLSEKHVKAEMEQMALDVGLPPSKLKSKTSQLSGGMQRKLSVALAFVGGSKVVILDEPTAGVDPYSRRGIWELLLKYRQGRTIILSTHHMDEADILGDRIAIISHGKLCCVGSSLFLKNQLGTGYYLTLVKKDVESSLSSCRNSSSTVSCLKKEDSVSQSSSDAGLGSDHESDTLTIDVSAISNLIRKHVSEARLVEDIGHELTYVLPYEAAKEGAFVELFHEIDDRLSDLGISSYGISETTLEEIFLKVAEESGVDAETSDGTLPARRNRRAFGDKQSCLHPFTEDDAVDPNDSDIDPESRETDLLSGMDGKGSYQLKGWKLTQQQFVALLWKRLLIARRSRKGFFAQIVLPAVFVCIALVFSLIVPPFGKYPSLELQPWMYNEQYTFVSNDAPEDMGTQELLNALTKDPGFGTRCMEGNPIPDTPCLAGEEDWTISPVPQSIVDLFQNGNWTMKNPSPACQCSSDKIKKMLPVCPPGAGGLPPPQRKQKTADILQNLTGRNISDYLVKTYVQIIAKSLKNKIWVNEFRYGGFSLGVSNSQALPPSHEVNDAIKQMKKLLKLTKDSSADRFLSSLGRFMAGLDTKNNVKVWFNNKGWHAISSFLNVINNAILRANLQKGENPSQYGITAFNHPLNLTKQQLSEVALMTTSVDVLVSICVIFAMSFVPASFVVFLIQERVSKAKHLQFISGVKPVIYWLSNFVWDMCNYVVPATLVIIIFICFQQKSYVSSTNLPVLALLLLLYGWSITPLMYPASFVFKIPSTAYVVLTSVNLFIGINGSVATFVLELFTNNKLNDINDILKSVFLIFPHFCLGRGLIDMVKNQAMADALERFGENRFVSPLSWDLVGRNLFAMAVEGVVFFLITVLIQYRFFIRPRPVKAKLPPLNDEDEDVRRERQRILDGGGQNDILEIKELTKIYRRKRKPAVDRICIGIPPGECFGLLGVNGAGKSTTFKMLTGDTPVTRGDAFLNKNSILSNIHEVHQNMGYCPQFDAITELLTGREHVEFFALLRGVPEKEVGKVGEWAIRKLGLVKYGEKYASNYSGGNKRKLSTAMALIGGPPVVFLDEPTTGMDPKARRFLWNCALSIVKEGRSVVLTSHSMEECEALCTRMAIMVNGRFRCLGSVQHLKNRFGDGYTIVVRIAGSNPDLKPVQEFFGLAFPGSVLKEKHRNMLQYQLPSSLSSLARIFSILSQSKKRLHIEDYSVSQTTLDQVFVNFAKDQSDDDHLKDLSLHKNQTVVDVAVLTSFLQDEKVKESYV

## R3>F: SEQ ID NO:4 polypeptides with arginine at position 3 replaced by phenylalanine (EVFSKLEEWFAAFREFAEEFLARLKS; ATI-5261 amphipathic alpha-helix polypeptide core sequence selectively binds HDL, high-affinity ligand for ATP-binding cassette transporter A1 (ABCA1), ABCA1-lipid cholesterol efflux, ABCA1-stablization, anti-oxidant and anti- inflammatory activity)
  ABCA1-dependent cholesterol efflux: relatively high-levels of cholesterol efflux
  cholesterol efflux from macrophages not induced for ABCA1 (non-specific): low-levels of cholesterol efflux

## 23-mer: SEQ ID NO:5 with three residues deleted from the C-terminal end (EVRSKLEEWFAAFREFFEEFLAR; S1 amphipathic alpha-helix polypeptide core sequence selectively binds HDL, high-affinity ligand for ATP- binding cassette transporter A1 (ABCA1), ABCA1-lipid cholesterol efflux, ABCA1-stablization, anti-oxidant and anti-inflammatory activity)
  capacity to stimulate cholesterol efflux at 3 μg/ml: weakly active

## R3, 14, 23→Q3, 14, 23: SEQ ID NO:5 with arginines 3, 14, 23 changed to glutamine (EVQSKLEEWFAAFQEFFEEFLAQLKS; S1 amphipathic alpha-helix polypeptide core sequence selectively binds HDL, high-affinity ligand for ATP- binding cassette transporter A1 (ABCA1), ABCA1-lipid cholesterol efflux, ABCA1-stablization, anti-oxidant and anti-inflammatory activity)
  efficiency of ABCA1 cholesterol efflux (concentration dependence): reduced efflux efficiency
  ABCA1-dependent cholesterol efflux: greatly reduced efflux capacity

## R3, 14, 23→K3, 14, 23: SEQ ID NO:5 with lysine in place of arginine at positions 3, 14 and 23 (EVKSKLEEWFAAFKEFFEEFLAKLKS; S1 amphipathic alpha-helix polypeptide core sequence selectively binds HDL, high-affinity ligand for ATP- binding cassette transporter A1 (ABCA1), ABCA1-lipid cholesterol efflux, ABCA1-stablization, anti-oxidant and anti-inflammatory activity)
  ABCA1-dependent cholesterol efflux: stimulated ABCA1 cholesterol efflux
  cholesterol efflux from macrophages not induced for ABCA1 (non-specific): Low efflux

## R14→Q: SEQ ID NO:5 with arginine 14 replaced by glutamine (EVRSKLEEWFAAFQEFFEEFLARLKS; S1 amphipathic alpha-helix polypeptide core sequence selectively binds HDL, high-affinity ligand for ATP- binding cassette transporter A1 (ABCA1), ABCA1-lipid cholesterol efflux, ABCA1-stablization, anti-oxidant and anti-inflammatory activity)
  ABCA1-dependent cholesterol efflux at 30 μg/ml: mediated cholesterol efflux in an ABCA1 dependent manner
  efficiency of ABCA1 cholesterol efflux (concentration dependence): high efficiency

## EVRSKLEEWFAAFREFFEEFLARL (amphipathic alpha-helix polypeptide core sequence selectively binds HDL, high-affinity ligand for ATP- binding cassette transporter A1 (ABCA1), ABCA1-lipid cholesterol efflux, ABCA1-stablization, anti-oxidant and anti-inflammatory activity) [24-mer]
  capacity to stimulate cholesterol efflux at 3 μg/ml: retained high capacity to stimulate cholesterol efflux; also recorded: retained high activity
  efficiency of ABCA1 cholesterol efflux (concentration dependence): high efficience
  ABCA1-dependent cholesterol efflux: stimulated cholesterol efflux in an ABCA1-dependent manner

## R23→Q: SEQ ID NO:5 with arginine 23 replaced by glutamine (EVRSKLEEWFAAFREFFEEFLAQLKS; S1 amphipathic alpha-helix polypeptide core sequence selectively binds HDL, high-affinity ligand for ATP- binding cassette transporter A1 (ABCA1), ABCA1-lipid cholesterol efflux, ABCA1-stablization, anti-oxidant and anti-inflammatory activity)
  ABCA1-dependent cholesterol efflux at 30 μg/ml: mediated cholesterol efflux in an ABCA1 dependent manner
  efficiency of ABCA1 cholesterol efflux (concentration dependence): high efficiency

## 22-mer: SEQ ID NO:5 truncated from the C-terminal end to 22 residues (EVRSKLEEWFAAFREFFEEFLA; S1 amphipathic alpha-helix polypeptide core sequence selectively binds HDL, high-affinity ligand for ATP- binding cassette transporter A1 (ABCA1), ABCA1-lipid cholesterol efflux, ABCA1-stablization, anti-oxidant and anti-inflammatory activity)
  capacity to stimulate cholesterol efflux at 3 μg/ml: weakly active

## SKLRALFEEAFERFAAFWEELKSRVE ([dS][dK][dL][dR][dA][dL][dF][dE][dE][dA][dF][dE][dR][dF][dA][dA][dF][dW][dE][dE][dL][dK][dS][dR][dV][dE])
  ABCA1-dependent cholesterol efflux: stimulate ABCA1 cholesterol efflux in a ABCA1-dependent manner

## 18-mer: SEQ ID NO:5 truncated from the C-terminal end to 18 residues (EVRSKLEEWFAAFREFFE; S1 amphipathic alpha-helix polypeptide core sequence selectively binds HDL, high-affinity ligand for ATP- binding cassette transporter A1 (ABCA1), ABCA1-lipid cholesterol efflux, ABCA1-stablization, anti-oxidant and anti-inflammatory activity)
  capacity to stimulate cholesterol efflux at 3 μg/ml: weakly active

## E8, 15→Q8, 15: SEQ ID NO:5 with two glutamate residues replaced with glutamine (EVRSKLEQWFAAFRQFFEEFLARLKS; S1 amphipathic alpha-helix polypeptide core sequence selectively binds HDL, high-affinity ligand for ATP- binding cassette transporter A1 (ABCA1), ABCA1-lipid cholesterol efflux, ABCA1-stablization, anti-oxidant and anti-inflammatory activity)
  cholesterol efflux from macrophages not induced for ABCA1 (non-specific): further augmented

## A12>L: A12>L substitution analogs of SEQ ID NO:4 (EVRSKLEEWFALFREFAEEFLARLKS; ATI-5261 amphipathic alpha-helix polypeptide core sequence selectively binds HDL, high-affinity ligand for ATP-binding cassette transporter A1 (ABCA1), ABCA1-lipid cholesterol efflux, ABCA1-stablization, anti-oxidant and anti- inflammatory activity)
  ABCA1-dependent cholesterol efflux: stimulated cholesterol efflux from macrophages in an ABCA1-dependent manner

## EFRSKLEEWFAAFREFFEEFLARLKS (S2 amphipathic alpha-helix polypeptide core sequence selectively binds HDL, high-affinity ligand for ATP- binding cassette transporter A1 (ABCA1), ABCA1-lipid cholesterol efflux, ABCA1-stablization, anti-oxidant and anti-inflammatory activity) [SEQ ID NO:6]
Km in molar units
  cholesterol efflux efficiency/potency on per molecule (molar) basis versus apolipoproteins: activity similar to full-length Apo A-I, Apo E, and the C-terminal (CT) domain of Apo E

## E1, 7, 8, 15, 18, 19>D: SEQ ID NO:5 with E1, 7, 8, 15, 18, 19 replaced with D (DVRSKLDDWFAAFRDFFDDFLARLKS; S1 amphipathic alpha-helix polypeptide core sequence selectively binds HDL, high-affinity ligand for ATP- binding cassette transporter A1 (ABCA1), ABCA1-lipid cholesterol efflux, ABCA1-stablization, anti-oxidant and anti-inflammatory activity)
  ABCA1-dependent cholesterol efflux: retained high capacity to stimulate cholesterol efflux in an ABCA1-dependent manner
